The text below walks through data of US20050192209A1.

Where “and” joins values, the source holds several entries; their conditions need not be identical. Equal values may be shown once.

The experiment has as its target human heparanase, active 50 kDa form (human) (UniProt Q9Y251). Description: cell-based or functional assay.
Chain of UniProt Q9Y251 (Q9Y251 158-543 limits assumed, form in doubt): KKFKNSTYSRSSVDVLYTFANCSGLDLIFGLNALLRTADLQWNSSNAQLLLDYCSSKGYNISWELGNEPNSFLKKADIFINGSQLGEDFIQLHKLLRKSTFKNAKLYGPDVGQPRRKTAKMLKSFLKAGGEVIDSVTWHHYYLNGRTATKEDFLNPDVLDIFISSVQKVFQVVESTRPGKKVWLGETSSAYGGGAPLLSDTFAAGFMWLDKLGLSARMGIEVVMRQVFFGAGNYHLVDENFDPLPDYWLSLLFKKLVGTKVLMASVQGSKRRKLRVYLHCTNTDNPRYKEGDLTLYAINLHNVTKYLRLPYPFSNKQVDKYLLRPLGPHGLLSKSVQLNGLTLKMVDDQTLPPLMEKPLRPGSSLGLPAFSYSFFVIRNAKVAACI

With myelin basic protein, the inhibition of heparanase activity (35S-labeled ECM degradation) is 20 ng/mL.
As for poly-L-arginine (peptide), the inhibition of heparanase activity (35S-labeled ECM degradation) was 5 ng/mL and 13 ng/mL.

B1: Major Basic Protein (MBP) purified from human eosinophils (protein, UniProt P13727 106-222, looked up)
chain: TCRYLLVRSLQTFSQAWFTCRRCYRGNLVSIHNFNINYRIQCSVSALNQGQVWIGGRITGSGRCRRFQWVDGSRWNFAYWAAHQPWSRGGHCVALCTRGGHWRRAHCLRRLPFICSY
Consider B1, for which the inhibition of heparanase activity (release of HS degradation fragments from 35S-labeled ECM, gel filtration) was 80 nM and 200 nM; the inhibition of recombinant heparanase activity by eosinophil lysates (cellular MBP), 35S-labeled ECM degradation (fold excess of MBP over heparanase) came out at 2.5.
